Measurements as given in article PMC4772626.
Where “and” joins values, the source holds several entries; their conditions need not be identical. Equal values may be shown once.

Biological target: SMV helper component protease tagged with the Flag epitope at the N-terminus (soybean mosaic virus strain G7H)
Assay: affinity purification with mass spectrometry; crude extract of upper symptomatic soybean leaves at 15 dpi (20 mM Tris-HCl pH 7.5, 300 mM NaCl, 5 mM MgCl2, 5 mM dithiothreitol, 0.5% Triton X-100); anti-Flag antibody-conjugated agarose beads 16 h at 4 °C, five washes; 10% SDS-PAGE, Coomassie blue, dominant bands excised and identified by LC-MS/MS; Flag-tagged GFP as negative control

SMV helper component protease tagged with the Flag epitope at the N-terminus (natural protein)
stoichiometry N: 4 and 2
